US20120328512A1 (BRACCO IMAGING S P A, published 2012)
Bridge positions count the residues as written; N and C are the ends. Square brackets hold non-standard residues; d marks the D form. Primed or numbered codes have the meaning given here. Ends that are not written are not given here. * marks the point of attachment. αGalNAc = CC(=O)N[C@@H]1[C@@H](O)[C@@H](O)[C@@H](CO)O[C@@H]1*; 5FAM = O=C1OC2(c3ccc(O)cc3Oc3cc(O)ccc32)c2ccc(C(=O)*)cc21; Phe(3,4-F2) = N[C@@H](Cc1ccc(F)c(F)c1)C(=O)O; Thf2ca = tetrahydrofuran-2-carboxylic acid; Phe(4-F) = N[C@@H](Cc1ccc(F)cc1)C(=O)O; CF5″ = 5-carboxyfluorescein label; Cha = N[C@@H](CC1CCCCC1)C(=O)O; CF5 = 5-carboxyfluorescein; AEEA = NCCOCCOCC(=O)O

T1: DDE
T1 chain 1: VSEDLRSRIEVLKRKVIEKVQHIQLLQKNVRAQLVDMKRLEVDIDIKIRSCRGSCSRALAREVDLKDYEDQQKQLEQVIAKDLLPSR
T1 chain 2: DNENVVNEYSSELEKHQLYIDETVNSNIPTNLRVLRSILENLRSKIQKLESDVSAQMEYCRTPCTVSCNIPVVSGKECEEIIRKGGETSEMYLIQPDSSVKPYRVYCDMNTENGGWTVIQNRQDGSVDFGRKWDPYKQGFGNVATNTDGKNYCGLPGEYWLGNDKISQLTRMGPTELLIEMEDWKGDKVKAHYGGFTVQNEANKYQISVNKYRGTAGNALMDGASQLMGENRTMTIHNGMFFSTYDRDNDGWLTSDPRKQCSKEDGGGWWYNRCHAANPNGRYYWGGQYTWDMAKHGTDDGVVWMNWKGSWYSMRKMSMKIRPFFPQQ
T1 chain 3: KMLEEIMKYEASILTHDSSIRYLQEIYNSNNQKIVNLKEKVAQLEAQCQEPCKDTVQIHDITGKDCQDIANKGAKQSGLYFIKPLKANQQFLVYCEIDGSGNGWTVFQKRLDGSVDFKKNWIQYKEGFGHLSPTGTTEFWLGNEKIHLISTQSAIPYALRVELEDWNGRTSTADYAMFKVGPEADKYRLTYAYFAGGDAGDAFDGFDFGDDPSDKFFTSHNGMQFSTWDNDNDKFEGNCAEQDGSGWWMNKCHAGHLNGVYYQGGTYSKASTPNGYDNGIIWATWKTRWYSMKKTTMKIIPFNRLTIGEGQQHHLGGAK
T1 chain 4: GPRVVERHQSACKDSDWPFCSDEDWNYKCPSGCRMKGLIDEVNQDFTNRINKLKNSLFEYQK
T1 chain 5: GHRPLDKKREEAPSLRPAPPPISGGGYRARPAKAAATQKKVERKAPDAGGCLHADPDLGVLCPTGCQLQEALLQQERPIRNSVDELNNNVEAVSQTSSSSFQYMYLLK
T1 chain 6: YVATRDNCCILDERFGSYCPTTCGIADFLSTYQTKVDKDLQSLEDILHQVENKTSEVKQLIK

B1: Seq050-CF5 (peptide)
peptide: Ac-RWQPCPAESWT[Cha]CWDPGGGK(CF5)-NH2
modifications: disulfide 5-13
B2: Seq057-CF5 (peptide)
peptide: RWQPCPAESWT[Cha]CWDPGGGK(CF5)-NH2
modifications: disulfide 5-13
B3: Seq052-CF5 (peptide)
peptide: Ac-RGWQPCPWESWTFCWDPGGGK(5FAM)-NH2
modifications: disulfide 6-14; not fully specified
B4: Seq054-CF5 (peptide)
peptide: RGWQPCPAESWT[Cha]CWDPGGGK(CF5)-NH2
modifications: disulfide 6-14
B5: Seq056-CF5 (peptide)
peptide: RWQPCPAESWTFCWDPGGGK(5FAM)-NH2
modifications: disulfide 5-13; N-terminus assumed
SMILES: C[C@@H]1NC(=O)[C@@H]2CCCN2C(=O)[C@@H](NC(=O)[C@@H]2CCCN2C(=O)[C@H](CCC(N)=O)NC(=O)[C@H](Cc2c[nH]c3ccccc23)NC(=O)[C@@H](N)CCCNC(=N)N)CSSC[C@@H](C(=O)N[C@@H](Cc2c[nH]c3ccccc23)C(=O)N[C@@H](CC(=O)O)C(=O)N2CCC[C@H]2C(=O)NCC(=O)NCC(=O)NCC(=O)N[C@@H](CCCCNC(=O)c2ccc3c(c2)C(=O)OC32c3ccc(O)cc3Oc3cc(O)ccc32)C(N)=O)NC(=O)[C@H](Cc2ccccc2)NC(=O)[C@H]([C@@H](C)O)NC(=O)[C@H](Cc2c[nH]c3ccccc23)NC(=O)[C@H](CO)NC(=O)[C@H](CCC(=O)O)NC1=O
B6: Seq055-CF5 (peptide)
peptide: Ac-GWQPCPAESWT[Cha]CWDPGGGK(CF5)-NH2
modifications: disulfide 5-13
B7: Seq019-CF5 (peptide)
peptide: Ac-WQPCPWESWT[Phe(4-F)]CWDPGGGK(CF5)-NH2
modifications: disulfide 4-12
B8: Seq018-CF5 (peptide)
peptide: Ac-WQPCPWESWT[Cha]CWDPGGGK(CF5)-NH2
modifications: disulfide 4-12
B9: Seq022-CF5 (peptide)
peptide: H-RGWQPCPWESWTFCWDPGGGK(5FAM)-NH2
modifications: disulfide 6-14
SMILES: C[C@@H](O)[C@@H]1NC(=O)[C@H](Cc2c[nH]c3ccccc23)NC(=O)[C@H](CO)NC(=O)[C@H](CCC(=O)O)NC(=O)[C@H](Cc2c[nH]c3ccccc23)NC(=O)[C@@H]2CCCN2C(=O)[C@@H](NC(=O)[C@@H]2CCCN2C(=O)[C@H](CCC(N)=O)NC(=O)[C@H](Cc2c[nH]c3ccccc23)NC(=O)CNC(=O)[C@@H](N)CCCNC(=N)N)CSSC[C@@H](C(=O)N[C@@H](Cc2c[nH]c3ccccc23)C(=O)N[C@@H](CC(=O)O)C(=O)N2CCC[C@H]2C(=O)NCC(=O)NCC(=O)NCC(=O)N[C@@H](CCCCNC(=O)c2ccc3c(c2)C(=O)OC32c3ccc(O)cc3Oc3cc(O)ccc32)C(N)=O)NC(=O)[C@H](Cc2ccccc2)NC1=O
B10: Seq053-CF5 (peptide)
peptide: Ac-RGWQPCPAESWT[Cha]CWDPGGGK(CF5)-NH2
modifications: disulfide 6-14
B11: Seq020-CF5 (peptide)
peptide: Ac-WQPCPWESWT[Phe(3,4-F2)]CWDPGGGK(CF5)-NH2
modifications: disulfide 4-12
B12: Seq048-CF5 (peptide)
peptide: Ac-RWQPCPWESWTFCWDPGGGK(5FAM)-NH2
modifications: disulfide 5-13
SMILES: CC(=O)N[C@@H](CCCNC(=N)N)C(=O)N[C@@H](Cc1c[nH]c2ccccc12)C(=O)N[C@@H](CCC(N)=O)C(=O)N1CCC[C@H]1C(=O)N[C@H]1CSSC[C@@H](C(=O)N[C@@H](Cc2c[nH]c3ccccc23)C(=O)N[C@@H](CC(=O)O)C(=O)N2CCC[C@H]2C(=O)NCC(=O)NCC(=O)NCC(=O)N[C@@H](CCCCNC(=O)c2ccc3c(c2)C(=O)OC32c3ccc(O)cc3Oc3cc(O)ccc32)C(N)=O)NC(=O)[C@H](Cc2ccccc2)NC(=O)[C@H]([C@@H](C)O)NC(=O)[C@H](Cc2c[nH]c3ccccc23)NC(=O)[C@H](CO)NC(=O)[C@H](CCC(=O)O)NC(=O)[C@H](Cc2c[nH]c3ccccc23)NC(=O)[C@@H]2CCCN2C1=O
B13: Seq027-CF5 (peptide)
peptide: Ac-S(αGalNAc)WQPCPWESWTFCWDPGGGK(CF5)-NH2
modifications: disulfide 5-13
B14: Seq039-CF5 (peptide)
peptide: Ac-GWQPCPAESWTFCWDPGGGK(5FAM)-NH2
modifications: disulfide 5-13
SMILES: CC(=O)NCC(=O)N[C@@H](Cc1c[nH]c2ccccc12)C(=O)N[C@@H](CCC(N)=O)C(=O)N1CCC[C@H]1C(=O)N[C@H]1CSSC[C@@H](C(=O)N[C@@H](Cc2c[nH]c3ccccc23)C(=O)N[C@@H](CC(=O)O)C(=O)N2CCC[C@H]2C(=O)NCC(=O)NCC(=O)NCC(=O)N[C@@H](CCCCNC(=O)c2ccc3c(c2)C(=O)OC32c3ccc(O)cc3Oc3cc(O)ccc32)C(N)=O)NC(=O)[C@H](Cc2ccccc2)NC(=O)[C@H]([C@@H](C)O)NC(=O)[C@H](Cc2c[nH]c3ccccc23)NC(=O)[C@H](CO)NC(=O)[C@H](CCC(=O)O)NC(=O)[C@H](C)NC(=O)[C@@H]2CCCN2C1=O
B15: Seq051-CF5 (peptide)
peptide: GWQPCPAESWT[Cha]CWDPGGGK(CF5)-NH2
modifications: disulfide 5-13
B16: Seq038-CF5 (peptide)
peptide: H-GWQPCPAESWTFCWDPGGGK(5FAM)-NH2
modifications: disulfide 5-13
SMILES: C[C@@H]1NC(=O)[C@@H]2CCCN2C(=O)[C@@H](NC(=O)[C@@H]2CCCN2C(=O)[C@H](CCC(N)=O)NC(=O)[C@H](Cc2c[nH]c3ccccc23)NC(=O)CN)CSSC[C@@H](C(=O)N[C@@H](Cc2c[nH]c3ccccc23)C(=O)N[C@@H](CC(=O)O)C(=O)N2CCC[C@H]2C(=O)NCC(=O)NCC(=O)NCC(=O)N[C@@H](CCCCNC(=O)c2ccc3c(c2)C(=O)OC32c3ccc(O)cc3Oc3cc(O)ccc32)C(N)=O)NC(=O)[C@H](Cc2ccccc2)NC(=O)[C@H]([C@@H](C)O)NC(=O)[C@H](Cc2c[nH]c3ccccc23)NC(=O)[C@H](CO)NC(=O)[C@H](CCC(=O)O)NC1=O
B17: Seq023-CF5 (peptide)
peptide: H-RWQPCPWESWTFCWDPGGGK(5FAM)-NH2
modifications: disulfide 5-13
SMILES: C[C@@H](O)[C@@H]1NC(=O)[C@H](Cc2c[nH]c3ccccc23)NC(=O)[C@H](CO)NC(=O)[C@H](CCC(=O)O)NC(=O)[C@H](Cc2c[nH]c3ccccc23)NC(=O)[C@@H]2CCCN2C(=O)[C@@H](NC(=O)[C@@H]2CCCN2C(=O)[C@H](CCC(N)=O)NC(=O)[C@H](Cc2c[nH]c3ccccc23)NC(=O)[C@@H](N)CCCNC(=N)N)CSSC[C@@H](C(=O)N[C@@H](Cc2c[nH]c3ccccc23)C(=O)N[C@@H](CC(=O)O)C(=O)N2CCC[C@H]2C(=O)NCC(=O)NCC(=O)NCC(=O)N[C@@H](CCCCNC(=O)c2ccc3c(c2)C(=O)OC32c3ccc(O)cc3Oc3cc(O)ccc32)C(N)=O)NC(=O)[C@H](Cc2ccccc2)NC1=O
B18: Seq049-CF5 (peptide)
peptide: Ac-RWQPCPAESWTFCWDPGGGK(5FAM)-NH2
modifications: disulfide 5-13; not fully specified
B19: Seq028-CF5 (peptide)
peptide: Thf2ca-WQPCPWESWTFCWDPGGGK(CF5)-NH2
modifications: disulfide 4-12
B20: Seq024-CF5 (peptide)
peptide: Ac-SGSGSGSGWQPCPWESWTFCWDPGGGK(CF5)-NH2
modifications: disulfide 12-20
B21: Seq000-CF5 (peptide)
peptide: Ac-WQPCPWESWTFCWDPGGGK(CF5)-NH2
modifications: disulfide 4-12
notes: also called standard 5CF-labeled peptide
B22: Seq017-CF5 (peptide)
peptide: Ac-SGSG[AEEA]WQPCPWESWTFCWDPGGGK(CF5″)-NH2
modifications: disulfide 9-17
B23: Seq016-CF5 (peptide)
peptide: Ac-GWQPCPWESWTFCWDPGGGK(CF5)-NH2
modifications: disulfide 5-13
B24: Seq014-CF5 (peptide)
peptide: Ac-GPPGWQPCPWESWTFCWDPGGGK(CF5)-NH2
modifications: disulfide 8-16
B25: Seq015-CF5 (peptide)
peptide: Ac-GGRGWQPCPWESWTFCWDPGGGK(CF5)-NH2
modifications: disulfide 8-16

Target: DDE
Experiment: direct binding fluorescence polarization: CF5-labeled peptide titrated with DDE; n = 2

Row | Kd | Binder
1 | 80 nM | B1
2 | 30 nM | B2
3 | 530 nM | B3
4 | 50 nM | B4
5 | 60 nM | B5
6 | 80 nM | B6
7 | 1020 nM | B7
8 | 200 nM | B8
9 | 280 nM | B9
10 | 100 nM | B10
11 | 700 nM | B11
12 | 110 nM | B12
13 | 500 nM | B13
14 | 240 nM | B14
15 | 60 nM | B15
16 | 240 nM | B16
17 | 110 nM | B17
18 | 210 nM | B18
19 | 1210 nM | B19

Target: T1, DDE
Experiment: as above

Row | Kd | Binder
20 | 470 nM | B20
21 | 390 nM | B21
22 | 450 nM | B22
23 | 230 nM | B23
24 | 250 nM | B24
25 | 290 nM | B25
